Consider nine molecules from US20130216547A1 (Regeneron, published 2013).

Where a chain is given by its changes, count along the chain named. Numbers in names are those of the source. Some results are limits rather than exact numbers.

Assay [1] has as its target T1, human big-endothelin-1 (big-ET-1) (human).
T1 construct: 38 amino acid peptide; also called human big-ET-1; hBig-ET-1
T1 peptide: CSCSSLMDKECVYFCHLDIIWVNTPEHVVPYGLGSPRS
As to the kind of experiment: SPR (Biacore T200), 37 C, mAb capture, peptide analyte. The procedure: (§1) Measurements were conducted on a T200 Biacore instrument (Biacore Life Sciences division of GE Healthcare, Piscataway, N.J.). […] Peptide binding was monitored for 3 min while dissociation of mAb-bound peptide was monitored for 4 min in HBST running buffer (0.01 M HEPES pH 7.4, 0.15 M NaCl, 3 mM EDTA, 0.005% v/v Surfactant P20). Kinetic association (kₐ) and dissociation (kd) rate constants were determined by processing and fitting the data to a 1:1 binding model using Scrubber 2.0 curve fitting software.
For orientation: In SPR one partner is held on a chip, and binding of the other changes the refractive index at the surface.

The target of assay [2] is T1, human big-endothelin-1 (big-ET-1). Put plainly: cell-based or functional assay.
Assay [3] addresses T2, small-ET-1 (endothelin-1) (human).
T2 construct: 21 amino acid peptide, same for mouse and human; also called human small-ET-1; EDN-1
T2 peptide: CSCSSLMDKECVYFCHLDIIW
Put plainly: SPR (Biacore T200), 37 C, mAb capture, peptide analyte. The procedure:
as §1

In assay [4] the target is T3, mouse big-ET-1 (mouse).
T3 construct: also called mBig-ET-1
T3 peptide: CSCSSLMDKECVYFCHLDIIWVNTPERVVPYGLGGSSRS
The description is as above. The procedure:
as §1

In assay [5] the target is T3, mouse big-ET-1. Put plainly: cell-based or functional assay.
Assay [6] has as its target T1, human big-endothelin-1 (big-ET-1). Put plainly: cell-based or functional assay.
Assay [7] shares this target. As to the kind of experiment: SPR (Biacore T200), 37 C, mAb capture, peptide analyte. As to the method:
as §1

Assay [8] shares this target. As to the kind of experiment: SPR (Biacore T200), 37 C, mAb capture, peptide analyte; hybridoma mAb (H2M, mouse Fc), captured on rabbit anti-mouse surface; Table 2. As to the method:
as §1

Assay [9] has the same target. Put plainly: SPR (Biacore T200), 37 C, mAb capture, peptide analyte; human IgG4 format (H4H), captured on mouse anti-human Fc surface; Table 3. The procedure: as §1

B1: H2M6490N (antibody, V domains shown)
VH: EVQLLESGGGLVQPGGSLRLSCAASGFTFSSYAMTWVRQAPGKGLECISAISGSGYSTYYADSMKGRFSISRDNSKNTLYLQMNRLRAEDTAVYYCTKGGRILEWLLPFDFWGQGTLVTVSS
VL: DVVMTQSPLSLPVTLGQPASISCRSSQSLVYSDGNTYLIWFQQRPGQSPRRLIYKVSNRDSGVPDRFSGSGSGTDFTLIISRVEAEDVGLYYCMQGTHWPPTFGGGTKVEIK
notes: Hybridoma antibody, human variable domains, mouse IgG2 Fc (prefix H2M)
As to B1, in assay [1], the Kd (as a rule, a measure of binding affinity in units of concentration) is 19.1 nM; the “T½” value worked out at 3 min; the koff (commonly the rate constant with which the complex falls apart) stood at 0.00399 s⁻¹; the kon (usually the rate constant with which the complex forms) was determined as 209000 M⁻¹ s⁻¹. Moreover, the “Blocking IC50(M), 10 nM hBig-ET-1 + 3 nM hECE1 [Trial 1]; 293/ETaR/NFAT-Luc luciferase” value in assay [2] came to 1.9e-09 M. In [3], the binding result is “no binding”.

B2: H4H6353P (antibody, V domains shown)
VH: EVQLVESGGGLVKPGGSLRLSCAASGFSFNYAWMSWVRQAPGKGLEWIGRIKSKINGGTTDYTAPVKGRFTISRDDSKNTLYLQMNSLKTEDTAVYYCRGDEDFWGQGTLVTVSS
VL: B1 VL with N35F, I39N, Q42R, I79R, L90I, P101Y, G105Q, V109L
notes: Human IgG4 Fc (prefix H4H)
B2: in the assay with mouse big-ET-1 [4], the Kd stood at 800 nM, the “T½” value came to 5 min, the koff came to 0.00236 s⁻¹ and the kon amounted to 2900 M⁻¹ s⁻¹. Besides, in assay [1], the Kd came to 1.02 nM, the “T½” value was determined as 10 min, the koff turned out to be 0.00116 s⁻¹ and the kon came to 1.14e+06 M⁻¹ s⁻¹. In the assay with mouse big-ET-1 [5], the “Blocking IC50(M), 20 nM mBig-ET-1 + 5 nM mECE1; 293/ETaR/NFAT-Luc luciferase” value is greater than 1e-07 M. Also, the “Blocking IC50(M), 10 nM hBig-ET-1 + 3 nM hECE1; 293/ETaR/NFAT-Luc luciferase” value in assay [6] is 1.8e-09 M. Besides, the binding result in assay [3] was “no binding”.

B3: H4H6334P (antibody, V domains shown)
VH: EVQLVESGGGLVKPGGSLRLSCAVSGFTFSIDWMIWVRQAPGTGLEWVGRIKRKTDGGTTDYAAPVKGRFTISRDDSKNTLYLQMNSLKTEDTAIYYCATGGFERVGQGTLVTVSS
VL: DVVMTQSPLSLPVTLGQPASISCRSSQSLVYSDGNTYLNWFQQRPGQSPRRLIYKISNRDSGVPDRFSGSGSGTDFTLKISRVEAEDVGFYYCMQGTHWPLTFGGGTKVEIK
notes: Human IgG4 Fc (prefix H4H)
Take B3: in the assay with mouse big-ET-1 [4], the Kd came out at 58 nM, the “T½” value came out at 25 min, the koff was 0.000456 s⁻¹ and the kon was determined as 7900 M⁻¹ s⁻¹. In addition, in [1], binding was put at a Kd of 0.043 nM, the “T½” value came out at 133 min, the koff was determined as 8.68e-05 s⁻¹ and the kon is 2.02e+06 M⁻¹ s⁻¹. In addition, in the assay with mouse big-ET-1 [5], the “Blocking IC50(M), 20 nM mBig-ET-1 + 5 nM mECE1; 293/ETaR/NFAT-Luc luciferase” value is greater than 1e-07 M. Moreover, the “Blocking IC50(M), 10 nM hBig-ET-1 + 3 nM hECE1; 293/ETaR/NFAT-Luc luciferase” value in assay [6] is 6.8e-10 M. Further, the Kd in assay [7] is less than 0.05 nM.

B4: H2M6486N (antibody, V domains shown)
VH: EVQLVESGGGLVKPGGSLRLSCAASGFTFSSYNMNWVRQAPGKGLEWVSSISSSSSYIYYADSVKGRFTISRDNAKNSLYLQMNSLRAEDTAVYYCARDNWNYSFDYWGQGTLVTVSS
VL: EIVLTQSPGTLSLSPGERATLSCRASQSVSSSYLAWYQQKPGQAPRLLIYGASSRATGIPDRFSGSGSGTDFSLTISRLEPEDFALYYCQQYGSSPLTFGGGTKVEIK
notes: as for B1
For B4, in the assay with mouse big-ET-1 [4], binding was put at a Kd of 160 nM, the “T½” value was 0.1 min, the koff worked out at 0.135 s⁻¹ and the kon worked out at 830000 M⁻¹ s⁻¹. Moreover, in [1], the dissociation constant (Kd) stood at 239 nM, the “T½” value worked out at 0.1 min, the koff stood at 0.0898 s⁻¹ and the kon amounted to 380000 M⁻¹ s⁻¹. In [2], the “Blocking IC50(M), 10 nM hBig-ET-1 + 3 nM hECE1 [Trial 1]; 293/ETaR/NFAT-Luc luciferase” value was found to be 7.6e-09 M. In addition, the binding result in [3] was “no binding”.

B5: H1M6492N (antibody, V domains shown)
VH: EVQLVESGGGLVKPGGSLRVSCVASGFTFSNAWMTWVRQTPGKGLECVGRIKSRTDGGTVDYVAPVKGRFTISRDDSKNTLYLQMNSLKAEDTAVYYCRADLDYWGQGTLVTVSS
VL: DVVMTQSPLSLPVSLGQPASISCRSSQSLVHSDGITYLNWFQQRPGQSPRRLIYKISNRDSGVPDRFSGSGSGTDFTLKFSRVEAEDVGVYFCMQGTHWPYTFGQGTKLEIK
notes: Hybridoma antibody, human variable domains, mouse constant domains; prefix H1M marks the Fc region (isotype not spelled out)
For the molecule B5, in [1], the Kd turned out to be 6.46 nM, the “T½” value turned out to be 7 min, the koff stood at 0.0016 s⁻¹ and the kon was determined as 248000 M⁻¹ s⁻¹. The “Blocking IC50(M), 10 nM hBig-ET-1 + 3 nM hECE1 [Trial 1]; 293/ETaR/NFAT-Luc luciferase” value in assay [2] is 1.5e-09 M. Further, the binding result in assay [3] was “no binding”.

B6: H1M6494N (antibody, V domains shown)
VH: B5 VH
VL: B5 VL
notes: as for B5
Regarding B6, in assay [1], the affinity, expressed as Kd, was 7.07 nM; the “T½” value came to 7 min; the koff turned out to be 0.00169 s⁻¹; the kon was 239000 M⁻¹ s⁻¹. Besides, the “Blocking IC50(M), 10 nM hBig-ET-1 + 3 nM hECE1 [Trial 1]; 293/ETaR/NFAT-Luc luciferase” value in assay [2] amounted to 1.5e-09 M. The binding result in [3] is “no binding”.

B7: H4H6328P (antibody, V domains shown)
VH: QVQLVESGGGVVQPGRSLRLSCAASGFTFSSYGMHWVRQAPGKGLEWVAVIWYDGSDKYYADSVKGRFTISRDNSKNTLYLQMNSLRAEDTAVYYCARDGYGSRGNYFDYWGQGTLVTVSS
VL: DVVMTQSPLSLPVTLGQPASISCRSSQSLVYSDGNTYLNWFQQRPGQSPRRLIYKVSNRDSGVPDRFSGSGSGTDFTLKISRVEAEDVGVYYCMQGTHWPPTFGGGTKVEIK
notes: Human IgG4 Fc (prefix H4H)
In the case of B7, in [1], the Kd is no more than 0.00634 nM, the “T½” value stood at 11600 min, the dissociation rate constant (koff) is no more than 1e-06 s⁻¹ and the kon is 158000 M⁻¹ s⁻¹. Besides, the “Blocking IC50(M), 20 nM mBig-ET-1 + 5 nM mECE1; 293/ETaR/NFAT-Luc luciferase” value with mouse big-ET-1 [5] was greater than 1e-07 M. The “Blocking IC50(M), 10 nM hBig-ET-1 + 3 nM hECE1; 293/ETaR/NFAT-Luc luciferase” value in assay [6] is greater than 1e-07 M. The binding result in assay [3] was “no binding”. In [7], this molecule showed a Kd of less than 0.05 nM.

B8: H2M6495N (antibody, V domains shown)
VH: B7 VH with S30R, Y95F, R98K, G100E, G102K, S103T, N106G
VL: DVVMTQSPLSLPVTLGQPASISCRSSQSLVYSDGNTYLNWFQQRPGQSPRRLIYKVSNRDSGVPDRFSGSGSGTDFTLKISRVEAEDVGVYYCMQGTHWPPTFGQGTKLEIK
notes: as for B1
With B8, in [1], the “T½” value came to 11600 min, the koff was no more than 1e-06 s⁻¹ and the kon is 117000 M⁻¹ s⁻¹. Further, the “Blocking IC50(M), 10 nM hBig-ET-1 + 3 nM hECE1 [Trial 1]; 293/ETaR/NFAT-Luc luciferase” value in [2] came to 4.3e-09 M. For the same molecule, the binding result in assay [3] was “no binding”. Further, the Kd in [7] is less than 0.05 nM. Moreover, in [8], the Kd is no more than 0.00853 nM.

B9: H4H6495N (antibody, V domains shown)
VH: B7 VH with S30R, Y95F, R98K, G100E, G102K, S103T, N106G
VL: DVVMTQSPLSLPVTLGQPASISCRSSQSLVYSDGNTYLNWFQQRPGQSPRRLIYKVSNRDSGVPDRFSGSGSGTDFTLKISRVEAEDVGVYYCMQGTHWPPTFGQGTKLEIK
notes: Human IgG4 Fc version of 6495N; also called 6495N (human IgG4 format)
In the case of B9, in assay [1], the “T½” value is 0.3 min, the koff came to 0.0399 s⁻¹ and the kon was 606000 M⁻¹ s⁻¹. Moreover, the “Blocking IC50(M), 10 nM hBig-ET-1 + 3 nM hECE1; 293/ETaR/NFAT-Luc luciferase” value in [6] amounted to 1.33e-08 M. The Kd in [9] came to 65.9 nM.
